Measurements taken from the nanobody polyreactivity screen of Harvey et al. (2022).

Test: yeast display, Sf9 membrane polyspecificity reagent, FACS + sequencing; frameworks hold sequencing errors
How it was run: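 After 36–48 hours of galactose induction, yeast (Saccharomyces cerevisiae BJ5465) displaying a synthetic nanobody library were stained at 4 °C for 1 hour with 10% biotinylated, detergent-solubilized Sf9 membrane reagent. Streptavidin microbeads enriched the stained cells before FACS sorting into low and high (top ~1%) gates on anti-HA and streptavidin fluorescence. Each clone's polyreactivity label reflects its gate of origin.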

| Sequence | polyreactivity (PSR sort gate) |
| --- | --- |
| QVQLVESGGGLVQAGGSLRLSCAASGIILSYYVMGGYRQAPGNATELVAAISLRGGTTYYADSVKGRFTISRDNANTTVYIQMNSLKPEDTAVYYCAAQRPGFGYEYDYWGQGTQVTVSS | high polyreactivity |
| QVQLVESGGGLGQAGGSLRLSCAASGSIFGRYAMGWYRQAPGKERELVTVITSGGSTNYADSVKGRFTISRDNAKNTVYLQMNSVKPEDTAVFYCAVRPYELHRLADQHGGDDYWGQGTQVTVSS | low polyreactivity |
| QVQIVESGGGLVQAGGSLRLSCAASGLTFILYAMGWYRQAPGKERELVAAISYDGGSTYYADSVKGRFTISRDNAKNTVYLQMNSLKPEDTAVYYCAADSYYYQGYRRYNYDYWGQGTQVTVSS | high polyreactivity |
| QVQLVESGGGLVQAGGSLRLSCAASGYTFRSYTMGWYRQAPGKERELVAAITSRGTSTYYADSVKGRFTISRDNAKNTVYLQMNSLKPEDTAVYYCAAPIYNGYASWQVYYWGQGTQVTVSS | high polyreactivity |
| QVQLVESGGGLVQAGGSLRLSCAASGFIFGNNDMGWYRQAPGKERELVAGITWSGSSTYYADSVKGRFTISRDNAKNTVYLQMNSLKPEDTAVYYCNRVFTWRYGYRYEYWGQGTQVTVSS | high polyreactivity |
| QVQIVESGGGLVQAGGSLRLSCAASGSISVANAMGWYRQAPGKDRELVAAITDSGDDTYYADSVKGRFTISRDIAKNTVYLQMNSLKPEDTAVYYCAVEAWSVPPYDYWGQGTQVTVSS | low polyreactivity |
| QVQLVESGGGLVQAGGSLRLSCAASGFIFWTYAMGWYRQAPGKERELVAAISSGGTITKYADSVKGRFTISRDNATNTVYLQMNSLKPEDTAVYYCNARENAVSLRDYWGQGTQVTVSS | high polyreactivity |
| QVQLVESGGGLVQAGGSLRLSCAASGNTFVINTMGWYRQAPGKERELVAGISRRGTSTYYEDSVKGRFTISRDNAKNSVYLQMNSLKPEDTEVYYCAVYSEIVRYEYWGQGTQVTVSS | high polyreactivity |
| QVQHVESGGRLVQAGGSLRLSCAASGFIFPNYAMGWYRQAPGKERELVAVISRSGGSTYYADSVKGRFTISRDNAKNTVYLQMNSLKPEDTAVYYCNAVARGYGYDYWGQGTQVTVSS | high polyreactivity |
| QVQLVESGGGLVQAGGSHRLSCAASGRILVRYAMGCYRHAPGKERELVAAISRGGSTTYADSVKGRFTISRDNAKNTVYLQMNSLKPEDTAFYYCAAGRYPYNRDYWGQGTQVTVSS | high polyreactivity |
| QDQLVESGGGLVQAGGSLRLSCAASGSIFPYNAMAWSRQAPGTERELVAGITYNGGSTYYADSVKGRFTISRDNAKNTVYLQMNSLKREDTAVYYCAAAGRRAFYRYDHWGQGTQVTVSS | high polyreactivity |
| QVQLVESGGGLVQAGGSLRLSCAASGRTFNWYAMGWYRQAPGKERELVAAISYSGGGTYYADSVKGRFTISRDTAKNTVYLQMNSLKPEDTAVYYCAAETYYAPYDYWGQGTQVTVSS | high polyreactivity |
| QVQLVESGGGLVQAGGSLRLSCAASGSIFSRYTMGWYRQAPGKERELVAAITSSGVSTYYADSVKGRFTISRDNAKNTVYLQMNSLKPEDTAVYYCAAYSVFRSYDYWGQGTQVTVSS | high polyreactivity |
| QVQLVESGGGLVQAGGSLRLSCAASGLIFPRYGMGGYRPAPGKERELVAAITRGGSTYYADSVKGRFTISRDNAKNTVYLQMNSLKPEDTAVYYCIAELPVHWSWYDYWGHGTQVTVSS | low polyreactivity |
| QVQLVESGGGLVQAGGSLRLSCDASGRTFKYYAMGWYRQAPGKERELVAVITSGGSTYYADSVKGRFTISRDNAKNTVYLQMNSLKPEDTAVYYCAKSSHAREYYYWGQGTQVTVSS | low polyreactivity |
| QVQLVESGGGLVQAGGSLRLSCAASGSTFYHYAMGWYRQAPGKERELVATISRRGGSTYYADSVKGRFTISRDNAKNTVYLQMNSLKPEDTAVYYCAAEYARSSRYKISSEMYYWGQGTQVTVSS | high polyreactivity |
| QVQLVESGGGLVQAGGSLRLSCAAYGSTFTSYAMGWYRQAPGKERELVAAISSSGTRTYYADSVKGRFTISRDNAKNTVYLQMNSLKPEDTAVYYCAKASPYSKLYYWGQGTQGTVSS | high polyreactivity |
| QVQLVESGGGLVQAGGSLRLSCAASGFIFSRYAMGWYRQAPGKERELVAAISIGGSTYYADSVKGRFTISRDNAKNTVYLQMNSLKPEDTAVYYCAVDYRHSSSWNAGPWEMYYWGQGTQVTVSS | low polyreactivity |
| QDQLVESGGGLVQAGGSLRLSCAASGFTFDRYAMGWYRQAPGKERELVAAITSSGGSTYYADSVKGRFTISRDNAKNTVYLQMNSLKPEDTAVYYCAVAYSSHTSYYSWGQSTQVTVSS | low polyreactivity |
| QVQLVESGGGLVQAGGGLRLSSAASGTFKRNAVGWYRQAPGKERELVATITRTGSTTYADSVKGRFTISRDNAMNTVYLQMNSLKPEDTAVYYCAAGYPPEDPEDYWGQGTQVTVSS | low polyreactivity |
| QDQLVESRGGLVQAGVSLRLSCAASGIIFAENAMGWYRQAPGKERELVAAITWNGGRTYYADSVKGRFTISRDNAKNTVYLQMNSLKPEDTAVYYCNAVTVYYRIYEYWGQGTQVNVSS | high polyreactivity |

| Sequence | polyreactivity (PSR sort gate) |
| --- | --- |
| QFQLVESCAGLVQAGGSLRLSCADSGRIFRQYAMGWYIPAPGKERELVASITRNGGSTYYADSVKGRFTISRDNAKNTVYLQMNSQKPEDTAVYYCAKDVKGSYAYDSWGQGTQVTVSS | high polyreactivity |
| QEQLEESGGGLVQAGGRLRLSCAASGSTFGINARGWYRQAPGKEREVVASITRRGGSTYYADSVKGRFTISRDNAKNTVYLQMNSLKPEDTAVYYCNKTYRYGTPLYYYWGQGTQVTVSS | high polyreactivity |
| QVQLVESCGGLVQAGGSLRLSCAASGRIFLVYAMGWYRQAPGKERELVAAISWSTGSTYYADSVKGRFTISRDNAKNTVYLQMNSLKPEDTAVYYCAAEPELDEFEHDYWGQGTQVTVSS | low polyreactivity |
| QVQLVESGGGLVQAGGSLRLSCAASGGIFPYYAMGLYRQAPGKERELVADISSGGSTYYEDSVKGRFTISRDNAKNTVYLQMNSLKPEDTAVYYCAAEDTLAGSVARFGEYDYWGQGTQVTVSS | low polyreactivity |
| QVQLVESGGGLVQAGGSLRLSCAASGSIFDDNAMGWYRQAPGKERELVAGISRGGSTNYADSVKGRFTISRDNANNTVYLQMNSLKPEDTAVYYCNKRYKPSWTTYDYWGQGTQVTVSS | low polyreactivity |
| QVQLVESGGGLVQAGGSLRLICAASGRIFRYYAMGWYRQAPGKERELVAAISYSGGSTYYADSVKGRFTISRDNEKNTVYLQMNILKPEDTAVYYCNAGSWKSYYSTVRYLTYSMYYWGQGTQVTVSS | high polyreactivity |
| QVQLVESGGRLLQAGGSLRLSCAASGYTIDPYDMGWYRQAPGKERELVASISWSGGDTYYADSVKGRFSISRDNAKNTVYLQMNRLKPEDPAVYYCAADPGYAANRTEWRDFDYWGQGTQVTVSS | low polyreactivity |
| QVQLQESGGGLVQAGGTLRLSCAVSGTIFFPLDMGWYRQAPGREREYVAAIAEGTSTYYADSVKGRFTISRDNAKNTVFPQMYSLKPEDTAVYYCAAYRSTPQQFHYWGQGTQVTVSS | high polyreactivity |
| QVQLVESGGGLVQAGGSLRLSCAASGFIFVYYAMVWYRQAPGKERELVAAITLRGGSTNYADSVKGRFTISRDNAKNTVYLQMNSRKPEDTAVYYCAAYSVWGGSYLALDYWGQGTQVTVSS | low polyreactivity |
| QVQLVESGGCLVQAGCSLRLSCAASGRIFSTYAMGWYRQAPGTERELVAAINKIGGSTYFADSVKGRFTISRDNAKNTVYLQMNSLKPEDTAVYYCAADAPYYPVRRYYYWGQGTQVTVSS | low polyreactivity |
| QVQLVESGGGLVQAGGSLRLSCAASGSNFKSNAMGLYRPAPGKERELVAAINRSGAGTYYADSVKGRFTISRDNAKNTVYLQMNSLKPEDTAVYYCAAQSYSRRYDYWGQGTQVTVSS | high polyreactivity |
| QVQLVESGGGLVQAGGSLRLICAASGSIFVGNAMCWYSQATGKERELVATITSGGSTYYADSVKGRFTISRDNAMNTVYLQMNSLKPEDTSVYNCAADYEFSKFDYVYWGQGTQVTVSS | low polyreactivity |
| QVQLVETAGGLVQARGSLRLSCAASGFIFRYNAMGWYRQERGKERELVAAINYRGGSTYYADSVKGRFTISRDNAKNTVYLQMNSLKPEDTAVYYCAVLTYRGRFEYWGQGTQVTVSS | high polyreactivity |
| QVQLVESGGGLVQAGGSLRLSCAASGSIFYYYTMGWYRQAPGKERELVAAITWSGGRTYYADSVKGRFTISRDNAKNTVYLQMNSLKPEDTAVYYCNVDPYYGGIGDYWGQGTQVTVSS | high polyreactivity |
| QVQLVESGGGLVQAGGSLRLSSAASGFIFFCYTMGWYRQARGKERELVAAISSTGARTYYADSVKGSFTISRDNAKNTVYLQMNSLKPEDTAFYYCAARLSYQGRGYRFWGQGTQVTVSS | high polyreactivity |
| QVQLVESGGGLVQAGGSLRLSCAASGRIFGSYAMGWYRQAPGKERELVAAISGSGSRTYYADSVKGRFTISRDNAKNTVYLQMNSLKPEDTAVYYCNKYRFRVYPFGYWGQGTQVTVSS | high polyreactivity |
| QVQLVESGGGLVQAGGSLRLSCAASGFTFSQYAMGWYRQAPGKERELVAAISRSGGSTYYADSVKGRFTISRDNAKNTVYLQMNSLKPEDTAVYYCAAQPGRRAGRSGFDYWGQCTQVTVSS | high polyreactivity |
| QVQLVESGGGLVQAGGSLRLSCAASGRTFTEYAMGWYRQAPGKERELGAGIDSGSGSTYYADSVKGRFTISRDYAKNTVYLQMNSLHPEDTAVYYCAARDVWSPYDTDVDYWGQGTQVTVSS | low polyreactivity |
| QVQLVESGGGLVQAGGSLRLSCAASGRIFTTYAMGWYRQAPGKERELVARIRWRGGSTYYADSVKGRFTISRDNAKNTVYLKMNSLKPEDTAVYYCNADKYYGFDYWGQGTQVTVSS | high polyreactivity |
| QVQLVESGGGLVQAGGSLRLSCAASRRIFLWYAMGWYRQAPGKERELVASITRSGVTTYYADSVKGRFTISRDKAKNTVYLQMNSLKPEDTAVYYCNKDFRGDAIKLDVNYWGQGTQVTVSS | low polyreactivity |
